This note sets out measurements from paper PMC6347194, “Protein refolding based on high hydrostatic pressure and alkaline pH: Application on a recombinant dengue virus NS1 protein” (PLoS ONE, 2019).

Data set [1] deals with the molecule itself. Kind of data set: SEC; Superdex 200 10/300, elution in 50 mM CAPS pH 11.0; supernatant of NS1-IBs subjected to 2.4 kbar/0.4 kbar at pH 11.0, before dialysis.
Data set [2] deals with the molecule itself. The experiment in a line: SEC.

B1: dengue virus (DENV) non-structural protein 1 (NS1), recombinant, refolded from inclusion bodies (natural protein)
chain: DSGCVVSWKNKELKCGSGIFITDNVHTWTEQYKFQPESPSKLASAIQKAHEEGICGIRSVTRLENLMWKQITPELNHILSENEVKLTIMTGDIKGIMQAGKRSLQPQPTELKYSWKTWGKAKMLSTESHNQTFLIDGPETAECPNTNRAWNSLEVEDYGFGVFTTNIWLKLREKQDVFCDSKLMSAAIKDNRAVHADMGYWIESALNDTWKIEKASFIEVKSCHWPKSHTLWSNGVLESEMIIPKNFAGPVSQHNYRPGYHTQTAGPWHLGKLEMDFDFCEGTTVVVTEDCGNRGPSLRTTTASGKLITEWCCRSCTLPPLRYRGEDGCWYGMEIRPLKEKEENLVNSLVTA
notes: also called DENV NS1
Consider B1, for which the results for the “stoichiometry N” value in data set [1] and in data set [2] were 2 and 3, respectively.
